Experimental data as given in the nanobody polyreactivity screen of Harvey et al. (2022).

Experiment: yeast display, Sf9 membrane polyspecificity reagent, FACS + sequencing; frameworks hold sequencing errors
Method in brief: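 A nanobody's polyreactivity label depends on the gate it was sorted from. Yeast display cells were stained with 10% biotinylated, detergent-solubilized Sf9 membrane reagent for 1 hour at 4 °C, enriched on streptavidin microbeads and sorted by FACS. The low and high (top ~1%) gates were set on anti-HA fluorescence for expression and streptavidin fluorescence for reagent binding.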

Sequence	polyreactivity (PSR sort gate)
QVQLVESGGGLVQAGGSLRLSCAASGSIFYVYAMGWYRQSPGKERELVAAITSSGTTNYADSVKGRFTISRDNAKNTVYLLMNSLKPEDSAVYYCAADPDSGHVRFDYWGQGTQVTVSS	low polyreactivity
QVQLVESGGGLVQAGGSLRLSCAASGSIFYWNAMGWYRQAPGKEREFVADISQSGDSTYYADSVKGRFTISRDNAKNTVYLQMNSLKPEDTAVYYCAAQFLSYAWDYDYWGQGTQVTVSS	low polyreactivity
QVQLVESGGGLVQAGGSLRLSCAASGSIFYWYAMGWYRPAPGKERELVAAISYSGGSTYADSVKGRFTISRDNAKNTVYLQMNSLKPEDTAVYYCAVGYYRFGRFLGYYWGQGTQVTVSS	high polyreactivity
QVQLVESGGGLVQAGGSLRLSCAASGSIFYWYAMGWYRQAPGKEREFVAGITGRGGSTYYADSVKGRFTISRDNAKNTVYLQMNSLKPEDTAVYYADFVKYGKYYQRYDYWGQGTQVTVSS	high polyreactivity
QVQLVESGGGLVQAGGSLRLSCAASGSIFYWYAMGWYRQAPGKERELVAAITWSGGSTYYADSVKGRFTISRDNAKNTVYLQMNSLKPEDTAVYYCNKVPYYGAYSSYDYWGQGTQVTVSS	high polyreactivity
QVQLVESGGGLVQAGGSLRLSCAASGSIFYWYAMGWYRQAPGKERELVASIRWSGGTYYADSVKGRFTISRDNAKNTVYLQMNSLKPEDTAVYYCNKGGGRGHFEYWGQGTQVTVSS	low polyreactivity
QVQLVESGGGLVQAGGSLRLSCAASGSIFYWYAMGWYRQARGKERELVAGITYSGGNTYYADSVKGRFTISRDNAKNTVYLQMNSLKPEDTAVYYCAATRGYWRKWRMDYWGQGTQVTVSS	high polyreactivity
QVQLVESGGGLVQAGGSLRLSCAASGSIFYWYDMGWYRQAPGKERELVAAITNDGDSTYYADSVKGRFTISRDNAKNTVYLQMNSLKPEDTAVYYCAADVLFYYEYGSWGQGTQVTVSS	low polyreactivity
QVQLVESGGGLVQAGGSLRLSCAASGSIFYYNAMGWYRQAPGKERELVAAIRRSGGRTYYADSVKGRFTISRDNAKNTVYLQMNSLKPEDTAVYYCAAVHYDRVTGQVDHDYWGQGTQVTVSS	high polyreactivity
QVQLVESGGGLVQAGGSLRLSCAASGSIFYYNAMGWYRQAPGKERELVAAISWSGDSTYYADSVKGRFTISRDNAKNTVYLQMNSLKPEDTAVYYCNTDLVPWTEYWYDYWGQGTQVTVSS	low polyreactivity
QVQLVESGGGLVQAGGSLRLSCAASGSIFYYNAMGWYRQAPGKERELVAAITRSGGRTYYADSVKGRFTISRDNAKTTVYLQMNSLKPEDTAVYSCAARSAGPVTTLKYYYWGHGTQVTVSS	high polyreactivity
QVQLVESGGGLVQAGGSLRLSCAASGSIFYYNAMGWYRQAPGKERELVATIRTSGGSTYYADSVKGRFTISRDNAKNTVYLQMNSLKPVDTAVYYCAARDLRKLYSRYPYYYWGQGTQVTVSS	high polyreactivity
QVQLVESGGGLVQAGGSLRLSCAASGSIFYYNAMGWYRQEPGKERELVATITSAVSTNYADSVKGRFTISRDNAKNTVYLQMNSLKPEDTAVYYCATVYSLSFELDYWGQGTQVTVSS	low polyreactivity
QVQLVESGGGLVQAGGSLRLSCAASGSIFYYNVMGWYRQAPGKERELVAAIDIDGSTYYADSVKGRFTISRDNAKNTVYLQMNSLKPEDTAVYYCNAQAPYWFSFYSDHKYDYWGQGTQVTVSS	low polyreactivity
QVQLVESGGGLVQAGGSLRLSCAASGSIFYYYAMGRYRQAPGKERELVAAISSGGDTHYADSVKGRFTISRDNAKNTVYLQMNSLKPEDTAVFYCAAQRRYHQDTTIGPGNYYYWGQGTQVTVSS	low polyreactivity
QVQLVESGGGLVQAGGSLRLSCAASGSIFYYYAMGWYRQAPGKEREFVAAITKRADRTYYADSVKGRFTISRDNAKNTVYLQMNSLKPEDTAVYYCNADFVWRNGYLGFYRYDYWGQGTQVTVSS	low polyreactivity
QVQLVESGGGLVQAGGSLRLSCAASGSIFYYYAMGWYRQAPGKERELVAAISRNGGSTSYADSVKGRFTISRDNAKNTVYLQMNSLKPEDTAVYYCNTYGGYKYDYWGQGTQVTVSS	low polyreactivity
QVQLVESGGGLVQAGGSLRLSCAASGSIFYYYAMGWYRQAPGKERELVAAISWCGGSTYYADSVKGRFTISRDNAKNTVYLQMNSLKPEDTAVYYCAAQRRYGDDYWGQGTQVTVSS	high polyreactivity
QVQLVESGGGLVQAGGSLRLSCAASGSIFYYYAMGWYRQAPGKERELVADISISGGSTYYADSVKGRFTISRDNAKNTVYLQMNSLKPEDTAVYYCAATDYLWEPTVSNWGYTFDSWGQGTQVTVSS	low polyreactivity
QVQLVESGGGLVQAGGSLRLSCAASGSIFYYYVMGWYRQAPGKEREFVAAISWGGDSTYYADSVKGRFTISRDNAKNTVYLQMNSLKPEDTAVYYCAAVRYNSRVSTTPSEMYYWGQGTQVTVSS	low polyreactivity
QVQLVESGGGLVQAGGSLRLSCAASGSIFYYYVMGWYRQAPGKERELVAAISSGGGTNYADSVKGRFTISRDNAKNTVYLQLNRLKPEDTAVYYCAKASAYGLANDYDYWGQGTLVTVSS	low polyreactivity
QVQLVESGGGLVQAGGSLRLSCAASGSIGYYVMGWYRQAPGKERELVAVITFGGASTYYADSVKGRFTISRDNAKNTVYLQMNSLKPEDTAVYYCARYQHRLVYGYGYWGQGTQVTVSS	low polyreactivity

Sequence	polyreactivity (PSR sort gate)
QVQLVESGGGLVQAGGSLRLSCAASGSIIARYAMGWYRQAPGKETELVAAINSGTSTNYADSVKGRFTISRDNAKNTVYFQMHCLKPEDTEVYYCNTQWYVDNDTYTQTDYDYWGQGTQVTVSS	low polyreactivity
QVQLVESGGGLVQAGGSLRLSCAASGSIIARYAMGWYRQSPGKERELVAAITCSATSTYYADSVKGRFTISRDYAKNTVYLQLNSLKPEDTAVYYWNAGASYFLVISQSRRDYWGQGTQVTVSS	low polyreactivity
QVQLVESGGGLVQAGGSLRLSCAASGSIIDYNVMGWYRQAPGKEREFVAGISSTGGSTYYADSVKGRFSNSRDNAKHTVYLQMNSLKPEDTAVYYCAAYWNRAFRLDYWGQGTQVTVSS	high polyreactivity
QVQLVESGGGLVQAGGSLRLSCAASGSIIDYYAMGWYRQAPGKERELVADITVTGDGTYYADSVKGRFTISRDNAKNTVYLQMNSLKPEDTAVYYCAADFWLVSFQWDFEYDYWGQGTQVTVSS	low polyreactivity
QVQLVESGGGLVQAGGSLRLSCAASGSIIFNNAMGWYRQAPGKERELVAAITTGGSTYYADSVKGRFTISRDNAKNTVYLQMNSLKPEDTAVYYCAAVVVYPYRLGYDYWGQGTQVTVSS	low polyreactivity
QVQLVESGGGLVQAGGSLRLSCAASGSIIGFYAMGWYRQAPGKERELVARISKRGGITYYADSVKGRFTISRDNAKNTVDLQMNSLKPEDTAVYYCAVDRRVLWYHMDYWGQGTQVTLSS	high polyreactivity
QVQLVESGGGLVQAGGSLRLSCAASGSIIGIYDMGWYRQAPGKERELVAAISWSGGSTYYADSVKGRFTISRDNAKNTVYLQMNSLKPEDTAFYYCAARGHYQYYWGQGTQVTVSS	low polyreactivity
QVQLVESGGGLVQAGGSLRLSCAASGSIIGRYAMGWYRQAPGKERELVAAISTGGGRTYYADSVKGRFTISRDSAKNTVYFQLNSLKPEDTAVYYCNAGPYKGWGRMDYWGQGTQVNVSS	high polyreactivity
QVQLVESGGGLVQAGGSLRLSCAASGSIIGRYTMGWYRQAPGKERELVAAISRSGGSTYYADSVKGRFTISRDNAKNTVYLQMNSLKPEDTAVYYCAKRTYTPRGERLYSSYDYWGQGTQVTVSS	high polyreactivity
QVQLVESGGGLVQAGGSLRLSCAASGSIIGSNAMGWYRQAPGKERELVAAISRSGTRTYYADSVKGRFTISRDNAKNTVYLQMNSLKPEDTAVYYCATRGGGYWGQGTQVTVSS	high polyreactivity
QVQLVESGGGLVQAGGSLRLSCAASGSIIGTNVMGWYRQAPGKERELVASISYRDGTTYYADSVKGRFTISRDNAKNTVYLQMNSLKPEDTAVYYCAVANYYSYYWGQGTQVTVSS	low polyreactivity
QVQLVESGGGLVQAGGSLRLSCAASGSIIGYYAMGWYRQAPGKERELVAAISRTGGSTYYADSVKGRFTISRDNAKNTVFLPMNSLKPEDTAVYYCATRTYARHDYWGQGTQGTVSS	high polyreactivity
QVQLVESGGGLVQAGGSLRLSCAASGSIILLYAMGWYRQAPGKERELVAAISRSGDSTHYADSVKGRFTISRDNAKNTVYLQMNSLKPEDTAVYYCAADGYHPYGGLYDYCGQGTQVTVSS	low polyreactivity
QVQLVESGGGLVQAGGSLRLSCAASGSIIPRNVMGWYRQAPGKERDLVAAISSSGGSTSYADSVKGRFTISRDNAKNTVYLQMNSLKPEDTAVYYCNAPWQRYSAPWGQGYNYWGQGTQVTVSS	high polyreactivity
QVQLVESGGGLVQAGGSLRLSCAASGSIIQVYAMGWYRQAPGKERELVASITRTGGSTYYADSVKGSFTISRDNAKNTVYLQMNSLKPEDTAVYYCAARRVTSPFGSDSWGQGTQVTVSS	low polyreactivity
QVQLVESGGGLVQAGGSLRLSCAASGSIIRDNAMGWYRQAPGKERELVAAISVSGGRTYYADSVKGRFTISRDNAKNTVYLQMNSLKPEDTAVYYCAALRRPSYPGRFAELDYWGQGTQVTVSS	high polyreactivity
QVQLVESGGGLVQAGGSLRLSCAASGSIIRINAMGWYRQAPGKERELVAAISTRSGRTYYADSVKGRFTISRDNAKNTVYLQLNSLKPEDTAFYYCARYRTQASGYGGYHYWGQGTQVTVSS	high polyreactivity
QVQLVESGGGLVQAGGSLRLSCAASGSIISGYAMGWYRQAPGQERELVAAISRSGGRTYYADSVKGRFTISRDNAKNTVYLQMNSLKPEETAVYYCAAKIYIPRGYDYWGQGTQVTVSS	high polyreactivity
QVQLVESGGGLVQAGGSLRLSCAASGSIISGYAMGWYRQAPGTERELVAAISSSGGRTYYADSVKGRFTISRDNAKNTVYLQMNSLKPEDTAVYYCAAAYTITYDYWGQGTQVTVSS	high polyreactivity
QVQLVESGGGLVQAGGSLRLSCAASGSIISRNAMGWYRQAPGKERELVATIRYRGGSTYYADSVKGRFTISRDNAKNTVYLQMNSLKPEDTAVYYCAARRSHPPDPRFRYGYWGQGTQVTVSS	high polyreactivity
QVQLVESGGGLVQAGGSLRLSCAASGSIISYYAMGWYRQAPGKEWELVAAISWSGGSTYYADSVKGRFTISRDNAKNTVYLQRNSLTPEDTAVYYCAKYAYPRSRYTPYGSYDYWGQGTQVTVSS	high polyreactivity
